Assay results from patent US20220056111A1 (YUROGEN BIOSYSTEMS, published 2022).

T1: HcoV-229E S protein (HcoV-229E, UniProt P15423 16-1115)
T1 sequence: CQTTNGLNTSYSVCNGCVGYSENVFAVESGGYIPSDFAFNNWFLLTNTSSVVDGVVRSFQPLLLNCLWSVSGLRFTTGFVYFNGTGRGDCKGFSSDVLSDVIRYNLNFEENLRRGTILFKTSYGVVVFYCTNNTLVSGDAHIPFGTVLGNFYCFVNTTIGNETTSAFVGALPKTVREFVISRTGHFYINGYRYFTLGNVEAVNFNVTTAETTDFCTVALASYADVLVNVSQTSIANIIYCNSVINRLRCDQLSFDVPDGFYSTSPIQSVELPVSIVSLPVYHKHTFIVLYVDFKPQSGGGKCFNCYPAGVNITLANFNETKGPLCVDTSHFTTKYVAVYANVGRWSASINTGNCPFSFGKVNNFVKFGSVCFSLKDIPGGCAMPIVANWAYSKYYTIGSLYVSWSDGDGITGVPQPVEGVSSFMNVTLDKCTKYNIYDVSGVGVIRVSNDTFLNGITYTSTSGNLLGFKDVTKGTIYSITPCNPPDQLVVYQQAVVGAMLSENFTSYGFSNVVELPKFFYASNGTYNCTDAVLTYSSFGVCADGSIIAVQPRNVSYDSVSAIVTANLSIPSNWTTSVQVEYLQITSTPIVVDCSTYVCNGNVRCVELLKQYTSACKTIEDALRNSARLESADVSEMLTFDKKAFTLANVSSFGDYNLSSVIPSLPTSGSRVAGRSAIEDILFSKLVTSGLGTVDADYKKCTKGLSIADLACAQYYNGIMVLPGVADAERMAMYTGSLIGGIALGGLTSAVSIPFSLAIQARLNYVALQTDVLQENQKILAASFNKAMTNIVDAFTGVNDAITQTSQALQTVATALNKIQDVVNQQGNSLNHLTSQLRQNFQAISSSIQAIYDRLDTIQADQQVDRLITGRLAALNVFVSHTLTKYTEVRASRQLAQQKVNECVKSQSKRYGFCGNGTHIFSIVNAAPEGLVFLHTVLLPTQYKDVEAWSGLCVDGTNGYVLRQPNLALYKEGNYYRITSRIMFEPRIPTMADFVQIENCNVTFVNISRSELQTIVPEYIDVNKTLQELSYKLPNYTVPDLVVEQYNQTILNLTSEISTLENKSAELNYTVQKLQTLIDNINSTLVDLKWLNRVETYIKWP

T2: HcoV-OC43 S protein (HcoV-OC43, UniProt P36334 14-1297)
T2 sequence: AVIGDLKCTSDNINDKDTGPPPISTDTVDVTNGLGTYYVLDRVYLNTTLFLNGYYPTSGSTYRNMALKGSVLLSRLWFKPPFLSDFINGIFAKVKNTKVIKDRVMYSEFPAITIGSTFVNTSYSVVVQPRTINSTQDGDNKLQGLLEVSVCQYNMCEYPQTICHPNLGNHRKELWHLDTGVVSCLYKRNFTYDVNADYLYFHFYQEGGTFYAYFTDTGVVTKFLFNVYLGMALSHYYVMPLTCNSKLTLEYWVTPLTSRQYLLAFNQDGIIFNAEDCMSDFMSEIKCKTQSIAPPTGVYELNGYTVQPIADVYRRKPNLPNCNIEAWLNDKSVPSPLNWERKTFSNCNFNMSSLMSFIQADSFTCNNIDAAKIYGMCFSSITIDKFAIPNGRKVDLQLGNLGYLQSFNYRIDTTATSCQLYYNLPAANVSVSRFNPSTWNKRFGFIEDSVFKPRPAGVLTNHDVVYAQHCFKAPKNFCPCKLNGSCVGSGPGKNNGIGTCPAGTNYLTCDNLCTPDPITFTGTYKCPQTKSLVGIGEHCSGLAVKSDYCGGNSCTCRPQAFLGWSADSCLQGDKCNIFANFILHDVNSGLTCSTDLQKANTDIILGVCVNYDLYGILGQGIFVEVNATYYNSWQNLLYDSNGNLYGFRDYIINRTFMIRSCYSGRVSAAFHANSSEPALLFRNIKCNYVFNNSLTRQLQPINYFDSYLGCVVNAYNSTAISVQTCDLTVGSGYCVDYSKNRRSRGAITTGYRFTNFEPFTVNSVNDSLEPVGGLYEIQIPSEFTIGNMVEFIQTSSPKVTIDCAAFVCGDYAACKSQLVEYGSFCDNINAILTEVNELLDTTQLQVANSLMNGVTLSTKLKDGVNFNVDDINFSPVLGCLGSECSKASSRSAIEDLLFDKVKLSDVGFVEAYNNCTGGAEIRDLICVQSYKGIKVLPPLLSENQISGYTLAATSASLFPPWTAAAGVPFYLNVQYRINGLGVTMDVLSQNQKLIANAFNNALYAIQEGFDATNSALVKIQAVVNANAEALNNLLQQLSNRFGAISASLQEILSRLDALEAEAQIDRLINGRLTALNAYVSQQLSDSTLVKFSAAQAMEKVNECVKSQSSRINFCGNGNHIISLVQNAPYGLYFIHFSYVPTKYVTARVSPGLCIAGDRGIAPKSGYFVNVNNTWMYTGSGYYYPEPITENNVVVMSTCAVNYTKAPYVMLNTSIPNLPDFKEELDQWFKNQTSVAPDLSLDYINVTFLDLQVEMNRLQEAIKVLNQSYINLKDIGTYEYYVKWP


Columns and labels:
HcoV-229E S protein = target: T1, HcoV-229E S protein; assay: direct ELISA, OD450
HcoV-OC43 S protein = target: T2, HcoV-OC43 S protein; assay: direct ELISA, OD450
[1] = target: T3, RBD (receptor binding domain) of the SARS-CoV-2 S1 (SARS-CoV-2, UniProt P0DTC2 319-541); assay: direct antigen ELISA, RBD coated, antibody titrated, anti-rabbit IgG-HRP
T3 construct: domain: RBD; also called RBD domain protein

[2] = target: SARS-CoV-2 Spike S1 protein (SARS-CoV-2, UniProt P0DTC2 16-685)

| Binder | binding result (HcoV-229E S protein) | binding result (HcoV-OC43 S protein) | binding result [1] | EC50 (read off the curve) [2] |
| --- | --- | --- | --- | --- |
| rabbit monoclonal antibody 1D2 against the SARS-CoV-2 S1 (antibody, V domains shown) VH: QSVEESGGRLVTPGTSLTLTCTVSGIDIETYWMSWVRQAPGKGLEWIAIITSHDHSGYANWAEGRFTISKTSTTVTLTITDLQPSDTGTYFCAKDVGHSTYDLWGPGTLVTVSS VL: AAVLTQTPSPVSAAVGGTVTISCQSSESVLSNNRLSWYQQKPGQPPKLLIYAASTLASGVPSRFKGRGSGTQFTLTISDVQCDDAAMYVCAGAFSGSSDTRAFGGGTEVVVKG | no binding | no binding | no binding (tested: 1000 ng/ml) |  |
| rabbit monoclonal antibody 1A3 against the SARS-CoV-2 S1 (antibody, V domains shown) VH: QSLEESGGRLVTPGTPLTLTCTVSGFSFSSYHMGWVRQAPGEGLEWIGTLIGIAGNTYYASWAKGRFSISKTSTTVDLKMTSPTTEDTATYWCARIVTATFEFWGPGTLVTVSS VL: AQVLTQTPSPVSAAVGGTVTISCQASQSVNMNLLSWFQQKPGQPPKLLIYQASNLASGVSARFKGSGSGTQFTLTINEIQCDDAATYYCQGDMGGWMFPFGGGTEVVVTG | no binding | no binding | no binding (tested: 1000 ng/ml) |  |
| rabbit monoclonal antibody 9A5 against the SARS-CoV-2 S1 (antibody, V domains shown) VH: QSVEESGGRLVTPGTPLTLTCTVSGFSLSAYQMIWVRQTPGKGLEYIGIMHTGTSAYYANWAKGRFTISKTSSTTVDLKMTSPTTEDTATYFCGRNLNEGFTGAYPFNLWGPGTLVAVSS VL: DVVMTQTPASVEAAVGGTVTIKCQASQSIGSNLAWYQKKPGQPPKLLIYQASNLASGVPSRFKGSGSGTQFTLTISDLECADAATYYCQMNYYISSSYTYTFGGGTEVVVKG | no binding | no binding |  |  |
| rabbit monoclonal antibody 7G5 against the SARS-CoV-2 S1 (antibody, V domains shown) VH: QEQLEESGGDLVKPGASLTLTCTASGFSFSSAYYMCWVRQAPGKGLEWIACIGVDSGGNSYYASWAKGRFTISTTSSTTVTLQMTSLTAADKATYFCTRSFSLWGPGTLVTISS VL: RKWLTQTASSVSAAVGGTVTISCQASQSVYNNDNLAWFQQRPGQPPKLLIYLASNLASGVPPRFSGSGSGTQFTLTISDVQCDDAATYYCLGGYDCSNADCHAFGGGTEVVVKG | no binding | no binding |  |  |
| rabbit monoclonal antibody 1H1 against the SARS-CoV-2 S1 (antibody, V domains shown) VH: QSLEESGGDLVKPGASLTLTCTASGFSFSSGYDMCWVRQAPGKGLEWIACIGTGSSGNIYYASWAKGRFTISKTSSTTVTLQMTSLTAADTATYFCARDDADYAGPDYFNLWGPGTLVTVSS VL: DIVMTQTPASVSEPVGGTVTIKCQASESISNWLAWYQQKPGQPPKLLIYAAFTLASGVPSRFKGSGSGTQFTLTINGVECADAATYYCQQTYSSRDVDNVFGGGTEVVVKG | no binding | no binding |  | ~0.04 µg/mL |
